Data taken from patent US12551573B2, “Compositions and methods for the targeting of PCSK9” (Scribe Therapeutics Inc., priority 2022, dated 2026).
Changes are numbered by the printed parent chain. Read-outs that look alike come from different tables or passages of the source.

B1: DOMAIN_26299 (protein, listed as Geotrypetes seraphini)
chain: QIPVIFEDIVIYFSQEEWKDLEEWQKELYKDVMKENYQTLISLGTGFPTPPPDIISHIERGEEPYIRDELESEKRETGKRG
B2: DOMAIN_26305 (protein, listed as Geotrypetes seraphini)
chain: QQMQVTFEDVAVSFSQEEWEYLDEGQKELYREVMKENYETVVSLGSPASTPKIISCIECGEEAYIRGEPGSEGRETGKSSC
B3: DOMAIN_26306 (protein, listed as Geotrypetes seraphini)
chain: QMPIKFEDIAVSFSQEEWEYLNEEQKELYREVMKENYQTLISLGTGSPPVTPDIISHIERGEEPYIREEPGSEEREPGRSS
B4: DOMAIN_26407 (protein, listed as Colinus virginianus)
chain: PSVPVTFRDVFVQFSRDEWALLDDEQKELHQSVMQSNYEMLMSLYCDLAKPEVSLQMERGEPCLPAEPDLQGTAVSLNPAA
B5: DOMAIN_980 (protein)
chain: MPLKAQYQEMVTFEDVAVHFTKTEWTGLSPAQRALYRSVMLENFGNLTALGYPVPKPALISLLEGGDMAWGLEAQDDPPAE
modifications: Pan troglodytes
B6: DOMAIN_26463 (protein, listed as Pelodiscus sinensis)
chain: DSMRVTFEEVAVYFTPGQGALLGPAQRALYRDVMQENYEAVTSLGFPVPKPELIARLERGEEPWVPDLQAREEREIPRGTC
B7: DOMAIN_26496 (protein, listed as Geotrypetes seraphini)
chain: B3 chain with I4V, N22D, P49S, V50I
B8: DOMAIN_26501 (protein, listed as Geotrypetes seraphini)
chain: AQVPVTFEDIAVYFSQEEWEDLEEQQRELYKDVMKENYETLSSLGPPAVTPDIISHIERGEEPYIRFESGPEEREIGKSSC
B9: DOMAIN_26886 (protein, listed as Homo sapiens)
chain: QLQETMTFKDVEVTFSQDEWGWLDSAQRNLYRDVMLENYRNMASLVGPFTKPALISWLEAREPWGLNMQAAQPKGNPVAAP
B10: DOMAIN_26925 (protein, listed as Alligator sinensis)
chain: PETVVSFEDVAVRFSPDEWHLLDDGQRRLYRDVLRENYSHVRSLGFPVPDLAVIFRMERGEEPWPPGLPAGTKSDDQEEER
B11: DOMAIN_26999 (protein, listed as Xenopus laevis)
chain: AQDPVTFDDISVYFSRDEWALLDAGQKQLYREVMAENYRALVSVGYVMEEPGLVSHIEHEQQGSPIRSRSSLHAGRHCGFI
B12: DOMAIN_27032 (protein, listed as Alligator mississippiensis)
chain: B10 chain with T72E, K73W, S74P, D75W, D76G, E78G, E79Q, E80A, R81P
B13: DOMAIN_27566 (protein)
chain: QLTFEDVALSFSKEEWQIMDPNQKTLYIDVMREIYETVTSLGLKLKNDTGNDQPVSLSTSEIQPSGCKVLRKARMKVAQTT
modifications: Muntiacus muntjak
B14: DOMAIN_27579 (protein)
chain: SQELLTFKDISVDFTQEEWGQLAPAHRNLYREVMLENYGNLVSVAGCQLSKPSVISQLEKGEEPWMTEKEGPGDPSSDLKS
modifications: Muntiacus muntjak
B15: DOMAIN_27902 (protein)
chain: B14 chain with I10V, A23S, P24L, C47Y, E62Q, E70K, S77P, S81N
modifications: Vulpes vulpes
B16: DOMAIN_28051 (protein, listed as Neomonachus schauinslandi)
chain: B14 chain with E3G, C47Y, E62Q, P75S, S81N
B17: DOMAIN_28085 (protein, listed as Enhydra lutris)
chain: B14 chain with A23P, P24L, C47Y, E62Q, G71V, G73E, K80R, S81T
B18: DOMAIN_28158 (protein, listed as Odocoileus virginianus)
chain: B13 chain with R32Q
B19: DOMAIN_28823 (protein)
chain: QVPVTFEDITVYFSREQWEYLDEGQKELYREVMKENYETLISLGTGPEGFNPEVLARIKLEEESHVWDPKEPGQKEVTRSY
modifications: Microcaecilia unicolor
B20: DOMAIN_29066 (protein, listed as Xenopus tropicalis)
chain: VKFDEVAVVFSEDEWNLLTDQQRGLYMEVMKENYEHLIYLGFEVPVILSLLQDGGGIGSDTVTQSKSQQVAGAEESKSSVTLEGPIPETLPS
B21: DOMAIN_29434 (protein, listed as Mus caroli)
chain: MTYDDVHVNFTGEEWALLSPSQKRLYKDVMLETYRNLTAIGYNWEDHNSEHFQHSRRHGRHERRHTGEKPSVYTQCGKVFAYH
B22: DOMAIN_29900 (protein)
chain: VAFEDVAVNFTQEEWALLNSSQKNLYREVMQETCRNLASVGSKWKDQNIEDHFEKPGKNIRKHMVQKLCESKEGSQYGEVVSQIPNL
modifications: Nomascus leucogenys
B23: DOMAIN_31340 (protein, listed as Homo sapiens)
chain: LTFEDVAVYFSEEEWQLLNPLEKTLYNDVMQDIYETVISLGLKLKNDTGNDHPISVSTSEIQTSGCEVSKKTRMKIAQKTMGRE
B24: DOMAIN_31935 (protein, listed as Rhinolophus ferrumequinum)
chain: EKIEDMAVSLIREEWLLDPSQKDLRRDNRTENYRNMFSLGGETRSENRELASKQVASAGVQPHGETAARCNGDVTGALEHGEARDLLGSRVERQRAN
B25: DOMAIN_32223 (protein, listed as Homo sapiens)
chain: GPQGARRQAFLAFGDVTVDFTQKEWRLLSPAQRALYREVTLENYSHLVSLGILHSKPELIRRLEQGEVPWGEERRRRPGP
B26: DOMAIN_32327 (protein, listed as Homo sapiens)
chain: NMSQASVSFQDVTVEFTREEWQHLGPVERTLYRDVMLENYSHLISVGYCITKPKVISKLEKGEEPWSLEDEFLNQRYPGY
B27: DOMAIN_737 (protein, listed as Pan paniscus)
chain: MAFEDVAVYFSQEEWGLLDTAQRALYRRVMLDNFALVASLGLSTSRPRVVIQLERGEEPWVPSGTDTTLSRTTYRRRNPGS
B28: DOMAIN_2499 (protein, listed as Pongo sp.)
chain: MNSEVIVDPIQGQVNFEDVFVYFSQEEWVLLDEAQRLLYRDVMLENFALMASLGHTSFMSHIGASLVMGSEPWVPDWVDMI
B29: DOMAIN_2563 (protein, listed as Pongo sp.)
chain: MGPQGARRQAFLAFGDVTVDFTQKEWRLLSPTQRALYREVTLENYSHLVSLGILHSKPELIRRLEQGEAPWGEERRRRPGP
B30: DOMAIN_2629 (protein, listed as Pongo sp.)
chain: MFPPARGKELLSFEDVAMYFTREEWGHLSWGQKDLYRDVMLENYRNMVLLGFQFPKPEVICQLENWDEQWILDLPRAGNRK
B31: DOMAIN_2754 (protein, listed as Hylobates sp.)
chain: MAGEAEAQLDPSLQGLVMFEDVTVYFSREEWGLLNVTQKGLYRDVMLENFALVSSLGLAPSRSPVFTQLEDDEQSWVPNWV
B32: DOMAIN_3328 (protein, listed as Hylobates sp.)
chain: MGLVSFKDVAVDFTQEEWQQLDPSQRTLYRDVMLENYSHLVSMGYPVSKPDVISKLEQGEEPWIIKGDISNWIYPDEYQAD
B33: DOMAIN_3463 (protein, listed as Hylobates sp.)
chain: MMTAVSLTTRPQESVAFEDVAVYFTAKEWDIMVPAERALYRDVMLENYEAVAFVVPPTSKPALVSHLEQGKESCFTRPQGV
B34: DOMAIN_3832 (protein, listed as Macaca mulatta)
chain: TMSCSRAGGITGCIKYSTASVAFRDVAVDFTQEEWRLLSPAQRTLHREVMLETYNHLVSLEIPSSKPKLIAQLERGEEPWR
B35: DOMAIN_4120 (protein, listed as Macaca mulatta)
chain: MAFEDVAVYFSQEEWGLLDTAQRALYRHVMLENFTLVTSLGLSTSRPHVVIQLERGEEPWVPSGKDMTLARNTYRRLNAGS
B36: DOMAIN_4121 (protein, listed as Macaca mulatta)
chain: B27 chain with T68I, T72N
B37: DOMAIN_4516 (protein, listed as Callithrix sp.)
chain: MAAIPLKAQCQETVTFEDVAVHFTKTEWTGLSPAQRALYRSVMLENYGNLTAMGYLVPKPALISLLEGGDMAWGLEAQDDP

Tested on: HBEGF locus
Assay type: cell-based, human
[1] = high-throughput screen of dXR repression of the HBEGF gene, abundance of each domain in the library before vs after diphtheria toxin selection, listed domains met p-value <0.01 and log2(fold change) >2
[2] = high-throughput screen of dXR repression of the HBEGF gene, change in abundance of each domain in the library before and after diphtheria toxin selection
[3] = fold change in abundance of each repressor domain in the dXR library before vs after diphtheria toxin selection, dXR repression of the HBEGF gene, domains meeting p-value <0.01 and log2(fold change) >2

Row | Molecule | Log2 (fold change) [2] | Log2 (fold change) [3] | further results
1 | B1 | – | – | Log2 (fold change) [1]: 2.3704
2 | B2 | – | – | Log2 (fold change) [1]: 3.0107
3 | B3 | – | – | Log2 (fold change) [1]: 2.6178
4 | B4 | – | – | Log2 (fold change) [1]: 2.9778
5 | B5 | 2.9297 | – | –
6 | B6 | – | 2.8812 | –
7 | B7 | – | 2.7991 | –
8 | B8 | – | 2.6513 | –
9 | B9 | – | 3.3209 | –
10 | B10 | – | 3.2248 | –
11 | B11 | – | 3.4317 | –
12 | B12 | – | 3.4805 | –
13 | B13 | – | 2.7825 | –
14 | B14 | – | 3.8878 | –
15 | B15 | – | 2.9068 | –
16 | B16 | – | 2.4353 | –
17 | B17 | – | 2.2962 | –
18 | B18 | – | 3.0762 | –
19 | B19 | – | 2.331 | –

Row | Molecule | Log2 (fold change) [2] | Log2 (fold change) [3] | further results
20 | B20 | – | 2.6393 | –
21 | B21 | – | 2.2707 | –
22 | B22 | – | 2.1583 | –
23 | B23 | – | 2.8261 | –
24 | B24 | – | 3.5544 | –
25 | B25 | – | 2.8836 | –
26 | B26 | – | 3.1024 | –
27 | B27 | 4.544 | – | –
28 | B28 | 3.114 | – | –
29 | B29 | 2.8105 | – | –
30 | B30 | 3.092 | – | –
31 | B31 | 3.7601 | – | –
32 | B32 | 2.3718 | – | –
33 | B33 | 3.5462 | – | –
34 | B34 | 2.7334 | – | –
35 | B35 | 3.3237 | – | –
36 | B36 | 3.3195 | – | –
37 | B37 | 2.7603 | – | –
